According to the DeepSol protein solubility set:

Assay: soluble on expression in E. coli; label from the status in PepcDB or PDB records

| Sequence | soluble on expression in E. coli |
| --- | --- |
| SEKANALFETIFMENIMASPIAQTYMGIKQDYDKWDEIGDEADALELARTQKQLAEINQLDASKLDPQTRLSLALLTQNLNNDIKDYQWRYHTYPVNQMRGGHSMIASFLINQHQITDVSDAKAYISRLNGVPKRLTQLQKALEVRAEKGIIAPKFVFGYVISDSQNILKGAPFDKNEDSALLADFRKKVKALSIPETEKAPLIAEAEKALTSQVAPAYKALISYIKTLEAKADTRDGVWKLPDGDAFYNNALARTTTTDMTADEIHQLGLAEVERIHNEMRAIMKKVHFNGTLQAFFAFMRNNPQFYYPNTPEGKAAYLADATQLIDNMHSRLDEVFKVKPKAAMIVKQVESFREKSAGKAFYEQPAPDGSRPGSYYANLYDMKAMPKYQMEALAYHEGIPGHHMQIAISQELKDIPKFRKFGGYTAYIEGWGLYSESFPKEMGLYADPYSDFGRLAMELWRACRLVVDTGIHAKKWTREQGIAYYVDNTPNAKSDAVKMVERHIVMPSQATAYKVGMIKLLELRHKAEKQLGDKFDIRDFHTLILANGALPLDVLEEHVNQWIASVNK | not soluble |
| MGSDKIHHHHHHFKSKGKKSKRKKRNYFDSEDDDDESESETKYGGKFGKKKLEGLQKRLRETESAMSKILEQLESVQAGANPVDLDAADKRSEQLEEDPSVKEAVGLTETNEQYIKDLEVALKEFQSLSKEYDKAKMKKLKRKDSSSDEDEEDEEENSSELSEIEEEEEEVKPVKKSKSSSQSVGKRKNRPKSTSEEEDEGEEESRKVAEDAEEEGIDIDSEIREHAEKEKKDKNVRRRRPKKT | not soluble |
| MAHHHHHHMMKLNRNVLFKKGEKITYSVKSVIFIINVIRTRGEEDDDNNNISGKSILGTSHNNISNIDLSSIPNLDSNIHASFSSDTKEWSPNNLTSKKKKKKKEIRPKDIMSNSDSSNTSSINKQNNNQIKSVLLKENKGVKITGPCNVNLSIFLVPHIYIDVETKYNNIELKYELDEFSDSIKFKDTTTELRTSDDTLMNTNFNVGVSRDTLDKDRLYNICAENKTFKFVVYIKDNILTLKWKVYETGVTNNKVDIRQYKMKELTRPITTIQIHSVSENKDTHLLESKNYVIKTDIPETCDVMATNCFLSGNINIEKCLECTLLVQNNDTSSECFTYVSNDVRENFNQIKAEAEDDENFRNYHLTDTINNILKRIYKINKNEGKKELITLEELDNFLKESITDYCKILREIDTNGTLVNHELGNNVDVFNNLIRLLKLHKNESISTLHNKLRNSAICMKYPDKWIEKKTGLILPNVVNNNIIYNNKYEKLNEEKKRKIYDNKDDSKISDIINIKKYIFTNNTLKYFNNDKQFCNSSFCNRLKDENNCISKIQIEDQGNCAISWIFASKYYLETLKCMKGYEPHAISALYIANCSKRKHKNRCNVGSNPLEFLQIIEENQFLPMDTNYLYSYTKVGNDCPDEEKNWVNLLKHTRMLNYNNKHRSTLSTKAYRAYESEHFKDKMDTFIKLIKDEIMNNGSVIAYVKAENVLGYELNGKNVQNLCGDKTPDHAVNIVGYGNYINDEDEKKSYWIVRNSWGKYWGDEGYFKVDMYGPSTCEDNFIHTVVVFNINMPKSKKSPVKITFPLYNYYLKYSPDFYHNLYYKNFNSKKSMKLVNASDEHKNIYSQEDKVNHKKGSKILNSEVTTSLLSQEISQRRGEDDDIDTLIGDSPDINEQEKNIKDEFNKSSITHNSVSSSNITKSNKNTNKVKIYHIIKHVKNTKIKIGFVKYDNYNTIGTNHTCSRSYSEDQEKHEGCIKFCELHWNECKDKTSPGYCLTKLKGSNECFFCYV | not soluble |
| DGLEGMDDPDATSKKVVPLGVEIYEINGPFFFGVADRLKGVLDVIEETPKVFILRMRRVPVIDATGMHALWEFQESCEKRGTILLLSGVSDRLYGALNRFGFIEALGEERVFDHIDKALAYAKLLVETAEER | not soluble |
| MGSDKIHHHHHHYQPEKHAVVKSDRGDGRLLSTYAIVHEMLKDTHPQYAYRSGMSAQEFTQWQDGVRAAMVEIMKFPEIKRQPSPVCVKTEKKEGYILEKWEFYPFPKSVSTFLVLKPEHLKGAVPGVLCIPGSGRTKEGLVGEPGICDKLTEDYNNPKVSMALNMVKEGYVAVAVDNAAAGEASDLECYDKGWNYDYDVVSRFLLELGWSWLGYTSYLDMQVLNWMKAQSYIRKDRIVISGFSLGTEPMMVLGVLDKDIYAFVYNDFLCQTQERAVVMTKPDKENRRPFPNSIRHLIPGYWRYFNFPDVVASLAPRPIIFTEGGLDRDFRLVQSAYAASGKPENAEFHHYPKFADKAVRKDVEHLDEGLDSKTYFEAVNVDPPSHYFKNELVIPWLRKVLK | not soluble |
| MDEIDLRILKILQYNAKYSLDEIAREIRIPKSTLSYRIKKLEKDGVIKGYYAYINPASLNLDYIVITSVKAKYGKNYHVELGNKLAQIPGVWGVYFVLGDNDFIVMARYKTREEFMEKFLERVMSIPEVERASTQVVVKIIKESPNIVIF | soluble |
| MSLKYDYVIIGNSAGGIGCVEAIRELDVDSSILVISAEKYHAYSRALIPYYLDGKIEFEKMYYRPPDFYEKMDVETKLGVRAVGVDVEAKKVLLESGEEVEYGKLLIATGGKPFIPPMEGLGGQSNVFTFLKMDDVLAVEKAIKEAKKAVVLGGGIIGLMASEVLAKKGLDVKVVELADRVLAPVVDETTSRIVERKFEENGVEIILNNTISKVVGEERVEKVILRDGRELEADMLLVAVGVVPNVDIVKNTPIKVNRGIVVNRKMETSVKDVYACGDCAEIYDFVFGANRVLPLWPTAYTGGRIAGFNMVGIEREYNLATSMNAMHFFDYYIINAGLNVPNDSEEFEVIYRLEGDSYRKFALKDGRIAGFIIAGKMERAGIFLKLMEEGIDVSSFKEKLLKDNFGFLDIPEPTRWKLIEDKIKLGVVREIEGHHHHHH | soluble |
| MSLNPSGKYQVKILGIEDYQALTACQSACPLGTDTKRYVRAITEGDYEKAFLIARQTNPLVSVCSRVCTAPCEKSCRKGEQGHPVDIRALKRFACDKHGVTSPRAVAGRLEEISRQNGGVGDRTGNHILTMAAVQKAGAAATSRKPAPRVAIIGSGPTGLSAAHDLALLGYGVTIFEAAPYAGGMLRTGIPAFRLPKDVLQQEIDAILNLGVELKLNSPIGEDLTLADLKAQGYESVFITIGLQDPLRILNIEGTDLAGIYSGVEYVRDHEKIRLGKRCLVIGGGGVAIDCAQHAVRQGAEQVMIACLESWETMPASLTEREDAQEEGIVFHPALGPRRFMGHNGHVARAEFLQVSSVFDSEGRFAPTFVPDSTTTLEVDSVILAVGQASTAPSLAGLAGLDLTPNGLIKAAEDMSTNLPGVFAGGDVRWRFTRNATDAIADGQKAARAIHGYLSGHTPQVIRKGFMRPVSPDFENTRCDTIAPVPIPKRDAGERVRTKEEITIGFGEAEAREQAARCRRCNIQTVFERSRCLRCGTCVDTCVNGALRIVRLADIQGDEDVAKLTDALKKSAQTRSKAMTAIIKDESRCASCGMCARRCPGGAITMAEFYCQEEWEEGHHHHHH | soluble |
| MGSDKIHHHHHHVFKYMKKLLIVTTVPETLATILQSQPTFLNEEYEVFLASSTGIQQVADIENVRCFTINMYRGYSPFKDLFSIFKMFYLLLRIKPHIIHSYTPKAGLVCAIAAYFARVPHRIHTFTGLLFPTATGFKHLILKFTDKLVIYLNTHIVCEGYGVWRQFYRFGFSESKFEVIGNGNIAGVDLCYFDPDIVDLSVKSNLISSYKLEGCKVFLYVGRLNVDKGIKELVNAFINLNDNSKLLIVGALDTTAPPDDDTLLKIKVNPNIIDFGFLNDIRPIMSISSCLILPSYREGFPNVVLQAGAMELPCIVTDIPGCNEIISHDVNGWLVKPKCIDALESAMNDFLSLDNAKLLSVKKEASENIKTNFERSFYQKKLLNFYNKVLEND | not soluble |
| RDLAVAILMDCSRSTEASVGERTVIDTAREALAALAAGIDVAGDRQAIWGFSSLRRDRVFLHLCKRFDEPMGPAVTARIGGLRPGHYTRLGAAIRHASARLNEEAASRKLLLVLTDGKPNDLDHYEGVHGIEDSRMAVREARALSQAVHGVVIDADGQDWFARIFGRAGFTLLPEPARLARALPDLYRSLTQEI | not soluble |
| MEKKAFFQQLDERTDIRYTDSGLKIFRLKFPRAHLRLCNVKIDFGSRDVCIRAESGDTLLPYGTAHFLEHLLFWHNGRNLYSDFFAHGALLNAFTTYTDTNFMFTSLPDRLRQTIPILLDALWNHSFDKKIVAQEKAVITSEIQTAHLNHQLSYHYQLISMLSPSSPAAVFPAGRIEDIEALDISDLQKAYKAAYQAHRMTLFLIGGSENTETLLPPHLQLEKRPDYHAERKIIPACPPVLSQKMMLGDEERMEDTWTGLQIGALPGQNDLLSIKLYWDIAARILFQLDSPFFQEIQQTYRLEIDRLSAETYIYEDGGFLILHSQGTHSSAYIDVASYYVTQKKEQVAAWLQYGKDSLTDAIIYDSDYVRKCFEWAAECDRCDCSFLDMYHIIQDMDAQVFLSLIDAMASSNKAIIHVSQKEAIRQ | not soluble |
| MGSDKIHHHHHHMMRRRLPSLIALRAFEAVGRTGSVRAAGDELAVSHTVVSRHLQNLQKFLGVALVRGEGRGVILTEAGVSFHAQISQAFDIIARATTAARPSSLPTLNIWCIPGIANRLLLSRLPELTGPPRNWEVNLQPTLTHPDLSRAEADAEIVYADVIDSRGPLMSEILVRPRVFPVASPAYLARYPAITSLEDLSQIALIHEESTMQWTRWFELAGLDDLPPLRGQRLWHAHLAIEAARLGQGVALANDVLVEEDLRSGALVEVITSSVYMETYQLVALKERWDDPAIVALRNWLKQVLAELE | not soluble |
| SKMARASASASLIDGKIYVFGGCPEDADSSNWAEVFDPVYQTWGIFNTPKMAHSINQSVVIEEKKVYAVDEEDQSFSFLPSEGRIWKSGKKDSKVGSRHDWCVIGKLLYCRATRGRILWCQPDELDWKEVKGLEQLQLYLSGTRYIFRRTSDKRPSKTNVKYDIRKISSNSAGNIVIFGNAHIGDPECVELWSAEISMERREGGEIWGKIEWSNVVFKLDPLSNSYSVDVLFSASVHL | soluble |
| MPNLSNRLTLLREKQGWSKAETARRLGLKAPSTYGNWEYGIREPDLDMVTQIATLYDVSVDYLLGQQSIPTYAPSELQGEKDIAKRMIKISEDLRYEDDLNLNGKPLNDSAAHFLADSIDFLYEQAKKLND | not soluble |
| MVKNGRDPPERNFYCTEKEETAPPLMNIFDDFKSQIEREIMTIFLKTAYESLLSIAISTEIIVPEDETRSLEKEVIKLMKLMKLMNLLEPLGNRVSRLMGLVRNAEEHRERIVKRNQESDVREIFKIAASRTKTRFHKALQKESSSSSMKWGFTEAKDEVLSLGIRLTHALIKLTLLRVKKNDREKQLLLRDWIFDESYEKQSALMYLLDYLLYKAEEFAASVVVEESGNDHHRQHILEEDRIGDDILTRISEAIFILQLLAMNLSRNVLTERDLIATNDQLLRCVRDVKFVESTIVVLMKGRSLKLKHKGKQSLLMKERTETIFWAKVNAELNKCWGESFWKYVEAARHLEAVVSSQQIVYTLCKLFVFGFES | not soluble |
| MDRNFKLRQMFSDYLDNKNSNSTHTPPVRVHYPLIATMSPADKARFTVKKITEVEGEVLDAPLENAHPVFFAEPQFELRWYNKPDSLAGRFQTNAEAETTSKLAQRLLTLFLKTEMLESAFFKYDDIRAIRVFFMDDREMATDRLMAILDNILSVSMTKLGHFSDKMSVTVDYELRAFMSDQKKAKRLVLEAMLKYPEFIPDSWGGESAILKWKEMKEIDVRRREADIKEMAETERKEKEKVEKNKMEMTEKIKKKDEDEKAKKEKERIDKEEKIKKEVEEAEKKKKEEKEKRRKEVKKNREEQLSINPEMSRNDKKDVVEEKSCLDKGAKDAQKKKKQQDVVDKKKEKRKLKKTRTMEASRSREVSHEEHHQPPVLSTLATPSPVPSPSVPPTAPPSTPRKPMFGAVSQFLSGRKRREPSAEKIVEPPSKNSAAATKKTVRK | not soluble |
| DYNASDMKVVSLRTKDNLHLKSWYKPASKHRPTILYLHGNAGHIGYRMPLVREFIDAGLGVFLLEYRGYGGNPGKPGEKGLYEDGETAIEFLIQHGVPSKRVILYGESIGTGVATHLATKYPVCAVILQSPFTSLTRLAQYHYPLNFLKPWDQYNSLARMKKINAPILVLHGKLDQIVPYQEGLNVFNEANEPKKMVSFDDKEHNDLWSADNFSREIIQFALNQCS | not soluble |
